Results: patent publication US5717058, “Peptide inhibitors of tax-dependent transcription” (Somatogen, Inc.)

Legend:
[1] = biological target: CREB (UniProt P16220 P16220:1-327); assay: EMSA; 3.4 nM CREB, 0.5 nM probe, 10 ng poly dIdC, 75 mM KCl, 6.25 mM MgCl2, room temp; reference without Tax; details: tags: heparin-agarose purified, prepared per Franklin et al. 1993; chain copies: 2; label: 32P end-label; cloned into pUC19 Bgl II site, 70 bp Kpn I-Hind III fragment used as probe
[2] = biological target: CREB + Tax (HTLV-I Tax enhances CREB binding) (/ HTLV-I, UniProt P16220;P03409 P16220:1-327,P03409:1-353); assay: EMSA; details: tags: Tax carries C-terminal His6 (TaxH6); label: 32P end-label; cloned into pUC19 Bgl II site, 70 bp Kpn I-Hind III fragment used as probe
Sequence of CREB + Tax (HTLV-I Tax enhances CREB binding) (P16220 whole entry, chain 1 of 2, the tested form may be a part): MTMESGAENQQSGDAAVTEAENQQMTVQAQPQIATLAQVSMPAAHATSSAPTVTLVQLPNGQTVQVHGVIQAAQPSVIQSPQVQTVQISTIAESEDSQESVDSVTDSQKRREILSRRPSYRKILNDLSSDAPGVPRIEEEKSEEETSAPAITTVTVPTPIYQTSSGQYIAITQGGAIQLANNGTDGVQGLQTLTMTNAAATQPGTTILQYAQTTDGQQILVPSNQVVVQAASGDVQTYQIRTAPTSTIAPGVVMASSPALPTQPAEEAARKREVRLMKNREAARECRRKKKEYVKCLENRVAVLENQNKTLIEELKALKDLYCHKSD
Sequence of CREB + Tax (HTLV-I Tax enhances CREB binding) (P03409 whole entry, chain 2 of 2, the tested form may be a part): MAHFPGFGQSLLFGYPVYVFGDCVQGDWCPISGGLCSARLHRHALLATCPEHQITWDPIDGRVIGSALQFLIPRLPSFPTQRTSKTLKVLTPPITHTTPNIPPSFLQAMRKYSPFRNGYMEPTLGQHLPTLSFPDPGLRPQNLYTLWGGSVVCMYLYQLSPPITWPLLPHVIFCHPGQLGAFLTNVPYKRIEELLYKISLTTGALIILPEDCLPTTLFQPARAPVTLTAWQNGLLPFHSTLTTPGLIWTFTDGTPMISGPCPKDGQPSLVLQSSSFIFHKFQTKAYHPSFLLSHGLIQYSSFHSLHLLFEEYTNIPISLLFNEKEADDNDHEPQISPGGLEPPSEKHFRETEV

Sequence of CREB (P16220 whole entry, the tested form may be a part, one chain of several): as the sequence (P16220 whole entry, chain 1 of 2, the tested form may be a part) above

B1: HTLV-I third 21 bp repeat (site 3 probe) (dsDNA)
DNA 1: GATCTGGCGTTGACGACAACCCCA
DNA 2: TGGGGTTGTCGTCAACGCCAGATC
B1 showed a binding signal [1] of 1 fold and a binding signal [2] of 3.9 fold.
